Results reported in paper PMC5541836.

Target: Wild-type spindle pole bodies (SPBs) purified from budding yeast (strain BGY72-8A: Spc97-TAP, Spc42-mCherry) (budding yeast) (UniProt P38863)
Assay: laser trap rupture force

Sequence of Wild-type spindle pole bodies (SPBs) purified from budding yeast (strain BGY72-8A: Spc97-TAP, Spc42-mCherry) (budding yeast) (P38863 whole entry, looked up): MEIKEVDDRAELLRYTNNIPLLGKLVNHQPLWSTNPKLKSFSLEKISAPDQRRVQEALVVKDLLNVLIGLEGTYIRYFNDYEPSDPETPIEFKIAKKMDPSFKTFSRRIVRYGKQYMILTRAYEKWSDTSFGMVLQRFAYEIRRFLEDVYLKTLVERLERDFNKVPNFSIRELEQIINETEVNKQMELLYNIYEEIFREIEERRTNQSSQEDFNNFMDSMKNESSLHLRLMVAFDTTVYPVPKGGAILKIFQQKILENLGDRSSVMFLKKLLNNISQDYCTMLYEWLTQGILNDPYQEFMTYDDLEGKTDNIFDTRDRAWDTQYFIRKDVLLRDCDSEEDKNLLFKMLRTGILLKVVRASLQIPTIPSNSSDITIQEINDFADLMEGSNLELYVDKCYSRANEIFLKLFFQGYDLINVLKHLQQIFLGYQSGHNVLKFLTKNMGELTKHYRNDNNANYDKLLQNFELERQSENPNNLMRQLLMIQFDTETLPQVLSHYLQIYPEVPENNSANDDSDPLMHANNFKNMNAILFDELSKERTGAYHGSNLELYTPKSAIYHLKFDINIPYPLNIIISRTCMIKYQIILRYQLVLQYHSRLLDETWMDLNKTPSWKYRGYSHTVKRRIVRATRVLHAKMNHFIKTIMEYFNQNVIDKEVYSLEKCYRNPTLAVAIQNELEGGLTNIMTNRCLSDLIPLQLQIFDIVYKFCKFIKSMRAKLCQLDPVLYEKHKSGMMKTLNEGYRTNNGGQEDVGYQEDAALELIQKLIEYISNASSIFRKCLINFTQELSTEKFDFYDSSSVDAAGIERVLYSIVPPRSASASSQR
Sequence of Microtubules assembled from bovine brain tubulin (Q6B856 whole entry, looked up): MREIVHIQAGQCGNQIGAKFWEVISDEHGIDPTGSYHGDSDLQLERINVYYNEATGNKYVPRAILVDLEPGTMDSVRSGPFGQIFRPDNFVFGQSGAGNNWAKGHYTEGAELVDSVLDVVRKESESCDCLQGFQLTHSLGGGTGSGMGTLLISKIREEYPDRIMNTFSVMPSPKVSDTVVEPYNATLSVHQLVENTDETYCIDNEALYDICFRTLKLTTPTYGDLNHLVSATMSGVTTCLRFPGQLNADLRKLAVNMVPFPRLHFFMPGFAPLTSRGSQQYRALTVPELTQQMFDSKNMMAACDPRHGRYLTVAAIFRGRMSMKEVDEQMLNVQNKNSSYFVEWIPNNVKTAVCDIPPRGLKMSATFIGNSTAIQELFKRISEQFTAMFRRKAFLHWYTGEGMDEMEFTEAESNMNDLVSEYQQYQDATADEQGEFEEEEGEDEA

raw mean rupture force: 45 pN
Substance: Microtubules assembled from bovine brain tubulin (from UniProt Q6B856 1-445) (complex)
